Data from the DeepSol protein solubility set.

Assay: soluble on expression in E. coli; label from the status in PepcDB or PDB records

| Sequence | soluble on expression in E. coli |
| --- | --- |
| MSLRALFDALTPKQARIAAILKREGGLQLTITCREYYHLRDMLEQYKVDYICIGRYGETTEEKLVEGLKRQLQMVEIMRGLDGVVSFPSPDAVRTAFGLGKKSVVLNDTPHAYHANSLTIPLSDALIAPSAIPQDAWRRYCPKKVMTFDGVFEYMWTSRHTPNLESVRKLGLEPGSYVVFRPEEAKAAYYQWNNVQLRAKLVELVKEMGYVVVNIPRYPDQVIEGAINLIKAVDHLDLAYYAAAVITGGLTMSTEAALLGTPAVSYFPGDVYIDRYLERAGAPLLRCSSMDECIHVVKKALSMGRAPPPKMEDPLKAIVAAVQEIFGGEGHHHHHH | soluble |
| MSLRDQFQLAIRVADLLQHITQMKRGQGYGFKEEYEALPEGQTASWDTAKEDENRNKNRYGNIISYDHSRVRLLVLDGDPHSDYINANYIDGYHRPRHYIATQGPMQETVKDFWRMIWQENSASIVMVTNLVEVGRVKCVRYWPDDTEVYGDIKVTLIETEPLAEYVIRTFTVQKKGYHEIRELRLFHFTSWPDHGVPCYATGLLGFVRQVKFLNPPEAGPIVVHCSAGAGRTGCFIAIDTMLDMAENERVVDIFNCVRELRAQRVNLVQTEEQYVFVHDAILEACLCGNTAIPVCEFRSLYYNISRLDPQTNSSQIKDEFQTLNIVTPRVRPEDCSIGLLPRNHDKNRSMDVLPLDRCLPFLISVDGESSNYINAALMDSHKQPAAFVVTQHPLPNTVADFWRLVFDYNCSSVVMLNEMDTAQFCMQYWPEKTSGCYGPIQVEFVSADIDEDIIHRIFRICNMARPQDGYRIVQHLQYIGWPAYRDTPPSKRSLLKVVRRLEKWQEQYDGREGRTVVHCLNGGGRSGTFCAICSVCEMIQQQNIIDVFHIVKTLRNNKSNMVETLEQYKFVYEVALEYLSSFEGHHHHHH | soluble |
| MSLRDSRYYCRLFSPAAVRGGIRRISAIYLNPSAFMSSLPITDRKIRFGLVGCGRISKNHIGAIAQHGDRAELVEICDTNPEALQAAEAATGARPFSSLSDMLAQGNADALVLATPSGLHPWQAIEVAQAGRHVVSEKPMATRWEDGKRMVKACDEAGVRLFVVKQNRRNATLQLVKKAIEQGRFGRIYMVTVNVFWTRPQEYYDAARWRGKWEWDGGAFMNQASHYVDLLDWLVGPVESVYAYTATLARRIEAEDTGVAALRWRHGAMGSINVTMLTYPQNLEGSITILGEKGTVRVGGVAVNRIDEWKFAEPHPDDDKIREANYETTSVYGFGHPLYYDNVINCLRGDCEPETDGREGLQSLALLTAIYRSARDGVRIPLPLDEGHHHHHH | soluble |
| MSLRDYRYSDAHVHYVDFFQESEGMPRLLEAMDKGRVDHVMLSGVAVAKKWHKDEPKRPRYYAGDDAGAYWYSATDVIVAAAVKSLPAEQRRRVHPFLTGFNPTDKNADAHIRRMLELDPGLWQGIGEIFTRHDDLTALTYGDVPRANNEALARVYHLAAEFDLPVLLHANVTSKRERNPLYLAEIEEPLRNHPHVRFIWAHAGTSMEIHRHQKKLDFLLPTLRRLLQRYPNLYIDLSWSVLRPYLLDEQGKPDPQWLALVERFPQRFMLGSDVVGQFDSLPELMASFDPFLDALPEQVARQVARDNFLAVLPREGHHHHHH | soluble |
| MSLREIVLINITGVDRPGLTAAITGVLAQGGVNILDIGQAVIHDTLSFGILVEIPDTVQGSSVLKDILFTAYKLDQQVRFTAVSEEGYQHWVEGQGKARHIVTLLTRKVTAEQLQCVSAITAKYGLNIDQIDRLSGRMPLDTPADKGKGCIEFTVRGEPADPKAMQAEFLAVAQELNVDIAFQQDSLFRRNRRLAVFDMDSTLIEAEVIDELAKAAGVGEQVAEITERAMRGELDFSESFKERLALLKGLDVGVLDEIGASLRLTEGAETLFSELKRLGYKTAILSGGFTYFAKQLQAKLGIDYVYANELEVVDGKVTGVAVEPIVNAQRKADLLRELAHKEGLSLEQTIAVGDGANDLPMLAIAGLGVAFRAKPLVKQSAKQAISTLGLDGVLYLLGEGHHHHHH | soluble |
| MSLREIVWVHSQRIAPYKTLILNELRYYPLELDPTPFNALVFTSKNAVFSLLETLNNSPKLKTLQNIPAYALSEPTAKTLQDHHFKVAFIGKKAHGKEFAQEILPLLKGKSVLYLRAKEIASSLDTILLEHGIDFKQAVVYENKLKHLTLSEQNALKPKEKSVLIFTAISHAKAFLHYFEFLENYTAISIGNTTALYLQEQGIPSYIAKKPSLEACLELALNLKSEGHHHHHH | soluble |
| MSLRESMRIELELQTDNFTVIPYNHQYYLASAIYNKIHSANPAYAKRLHNYQKFKFFTFSLLQIRKRVIRKEGIETIDGKAYLYISSPNNEFIENFVAGLLEDGKLRVGNVEFFVRKAKILPIPKKFNILKTISPIYLKTMIETEDGLKTYDLLPNNSKFYENLKNNLKKKYEAFYNEKCDMNFEFEVLKFRPKRMRIKNDIYCRCSEMVFKVWGDYDLIKFGYECGFGEKNSMGFGMVVNVEDKNQKNKKLKTKIEGHHHHHH | soluble |
| MSLREVALKILIVEDDTDAREWLSTIISNHFPEVWSAGDGEEGERLFGLHAPDVIITDIRMPKLGGLEMLDRIKAGGAKPYVIVISAFSEMKYFIKAIELGVHLFLPKPIEPGRLMETLEDFRHIKLAKLKKEEAEQERIRSLLFESKKELIRLIAHHWRQPLNVISITAENIKLNLDERGIEGHEDTHHLADKIVTESLRLSRVISRFSDTFFAKEEVGRHFGLHTVLKDAFEIAEPLAQEARCLLEIEGNDEVIFGLKGMLVQILLEVFKAIMALCDQVNRGELLVRVVCESFEGEVKIWMADVACAGRCWSEVMFEPFAGGFEEKRRDMELFVAQHLLRRYFDGMIKIVDRGEIRGLEITLSRNPKKFNSPLAEGHHHHHH | soluble |
| MSLRFIDKLYQANLGKLTAGISPAALGTAYYSWFAQLLQSPGSMLRLAYYPLLHANDYLSNLFKYDKPRDGKDVRFHTENWSYYPWRLWAEQFLQFEDWCLQASSKVPGIPLHVKRTVTFSTRQILDALSPSNFVLTNPDLLQETIRSNGQNLIRGTELAFQDFVEKITGSPPAGVENFIPGKQVAVTEGKVVYSNHLIELIQYTPQTEKVYKEGHHHHHH | soluble |
| MSLRGLSTDHTTQIVNLEDNTQDLLLLLSLFKKITNVNPSKNFNVILASSLNEVGTLKVILNLYSSAHLIRINDEPILGQITLTFISELCSIEPIAAKLINSGLYSVLLESPLSVAIQQGDIKPEFSPRLHNIWSNGLLSIVLLLLSQFGIKVLPETCLFVSYFGKQIKSTIYNWGDNKLAVSSSLIKETNQLVLLQKMLNLLNYQELFIQPKNSDDQQEAVELVIGLDSEHDKKRLSAALSKFLTHPKYLNSRIIPTTLEEQQQLEDESSRLEFVKGISRDIKALQDSLFEGHHHHHH | not soluble |
| MSLRIKLLLRFKPPFLIPYNYPRYLYSFLLRAIELADKEVAGRIHNNKRDIKFVASKFMPIGSTKRLEQGLLVESGTVELYVGSTEDIILESLVRGLGQGVGMLHVRGQRLLSYEAELEEIPKHLSGKRFKTLSPVSVYHNNPPNGFRQWDLSPVGPPNSPFENEPKVWKELLFENLKSKYMMVYGEPYEGSFDIRVLTKKPKSRRLLVKIDERTGKPIYARVWEFDFKMWGEEELLRVAYELGIGMRNPHGFGMVEVIEGHHHHHH | soluble |
| MSLRIKVCGIKRVEDAVMAAYCGADAIGLVVGRKHNSDDFIDKHLAQKIVRECPPYISPVLVTELDDAEEISGLVHETGVTSVQLHSDCTVDSIISLRKTFPNIKIIKNFHVIGPGVIHAMKPFESVVDAFILDTLDLANDKVGSTGLVHDWSISRKIVKEVSRPVILAGGLTPENVGEAIRVVNPYGVDASSGLKDSNGFKDEMKVINFVHRAKNDFFKVRNLSLENEGHHHHHH | soluble |
| MSLRILGRASSINVRKVLWACAEFEIAFEREDWGSGFKATDSTEFLALNPNAMIPVIQDGDFTLWESNSIIRYLASRYGATAFYPGEAQARARIDQWIDWQASDLNRSWSYAFMSLVRHSPAHQDPQALAAGCAEWSRYMRILDRQLASTGAYVAGSQFTLADIPIGLSVNRWFETPFEHPHLPAVRDYYERLSERPAYHLHGRNGTEGHHHHHH | soluble |
| MSLRILITGNMGYIGPVVARHLRQQYPDAWLVGLDRGWFAHCLSDPRQLPEVVLDQQWFGDVRDLTAQQLSGFDGVVHLAAISNDAMGKRFEQVTDAINCRASVAVAQAAAQAGVKHFVFASSCSVYGAAADGTPRSESSAVAPLTAYAHSKIDTERALAQLETDMVITCLRFATACGASPRLRLDLVLNDFVASAVANGTVEVLSDGSPWRPLIHVRDMARAIDWALGRTPLAGGRFLAVNAGAEQWNVQIRDLAQAVGAAMPSATVSISTTAPADNRSYRVDFSLFQRLAPQHQPQQTLQSTITELRDDLLRAGFADGDFRQSSDFIRLRILQQLVDSGALAADLRAEGHHHHHH | soluble |
